In PMC11857287:

Substrate: Nc1ncnc2c1ncn2[C@@H]1O[C@H](COP(=O)(O)OP(=O)(O)OP(=O)(O)OP(=O)(O)OC[C@H]2O[C@@H](n3cnc4c(N)ncnc43)[C@H](O)[C@@H]2O)[C@@H](O)[C@H]1O
Assay: fluorescent ADP assay, Lineweaver-Burk
Type: biochemical, Streptococcus pyogenes
Conditions: Mg2+-dependent, heading states optimal conditions (optimum pH 7.0, 45 °C), 0.1 mg/mL enzyme
Description: fluorescent ADP assay, Lineweaver-Burk on Sp-yqeK

B1: Sp-yqeK (Streptococcus pyogenes) (protein)
chain: MTYEDYLPYSRTELLAKIAEQMSPKRFKHVLGVEKAALSLAECYGCNPDKAGLAALLHDYAKECPDQVFLDLIDKYQLSPELAKWNNNVWHGMVGIYKIQEDLGLKDKDILRAIEIHTVGAAEMTLLDKVLYVADYIEEGRIFPLVDDARKIAKLDLNQAVAYETVNTVAYLASKAQPIFPQTLDTYNAFCSYLKEY
notes: pET28b (Nde I/Xho I), E. coli BL21(DE3), Ni-NTA purified; about 23 kDa; dimer in the asymmetric unit
- Km: 216.4 ± 21.65 µM
